The record followed here is paper doi:10.1101/2020.07.20.212654 (bioRxiv, 2020).

Assay [1] has as its target T1, MET567 (human, UniProt P08581 25-567). The assay can be described thus: SPR. On the technique in general: Surface plasmon resonance follows binding to a sensor surface in real time, without labels.
For assay [2], the target named is T1, MET567. The assay can be described thus: SEC-SAXS. On the technique in general: SEC sorts molecules by how far they enter the pores of the column.

T1 sequence (P08581 25-567): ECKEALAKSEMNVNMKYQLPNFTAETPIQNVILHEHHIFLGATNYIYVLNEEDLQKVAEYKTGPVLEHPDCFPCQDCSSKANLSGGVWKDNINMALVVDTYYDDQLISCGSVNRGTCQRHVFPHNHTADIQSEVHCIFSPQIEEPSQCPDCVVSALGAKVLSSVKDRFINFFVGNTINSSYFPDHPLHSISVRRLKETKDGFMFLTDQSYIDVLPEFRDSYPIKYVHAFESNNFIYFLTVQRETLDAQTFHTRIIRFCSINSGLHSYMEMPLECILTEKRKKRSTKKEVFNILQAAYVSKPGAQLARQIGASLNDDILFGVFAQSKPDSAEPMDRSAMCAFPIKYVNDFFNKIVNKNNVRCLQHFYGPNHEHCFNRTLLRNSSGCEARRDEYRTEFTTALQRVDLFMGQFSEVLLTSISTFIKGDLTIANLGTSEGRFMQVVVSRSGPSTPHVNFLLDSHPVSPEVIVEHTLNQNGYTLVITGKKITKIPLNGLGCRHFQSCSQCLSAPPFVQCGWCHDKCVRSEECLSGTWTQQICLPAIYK

As for “K1K1 (from UniProt P14210 128-206) (ligand)”, in assay [1], the Kd (in general, a measure of binding affinity in units of concentration) amounted to 205 nM. Besides, the stoichiometry N (in general, a count of units in the complex or per binding partner) in assay [2] was 1 K1K1:MET567.

B1: NK1 (domain or fragment, human, UniProt P14210 28-209, looked up)
chain: YAEGQRKRRNTIHEFKKSAKTTLIKIDPALKIKTKKVNTADQCANRCTRNKGLPFTCKAFVFDKARKQCLWFPFNSMSSGVKKEFGHEFDLYENKDYIRNCIIGKGRSYKGTVSITKSGIKCQPWSSMIPHEHSFLPSSYRGKDLQENYCRNPRGEEGGPWCFTSNPEVRYEVCDIPQCSEV
In assay [1], B1 gave a Kd of 200 nM.
